For one protein, Km and kcat results are on record in PMC10638201, “Application of electrospun chitosan-based nanofibers as immobilization matrix for biomolecules” (Applied Microbiology and Biotechnology, 2023).

Substrate in the data set: COc1cc(CO)ccc1O
Kind of data set: purified protein. Format: biochemical, Rhodococcus jostii. The conditions noted are these: free EUGO, O2 as co-substrate (air), ambient conditions, 50 mM Glycine·NaOH buffer, pH 8.0, N = 1, called preliminary.

B1: eugenol oxidase (EUGO); 6xHis-eugenol-oxidase-StrepTag-II (Rhodococcus jostii RHA1) (protein)
chain: MTRTLPPGVSDERFDAALQRFRDVVGDKWVLSTADELEAFRDPYPVGAAEANLPSAVVSPESTEQVQDIVRIANEYGIPLSPVSTGKNNGYGGAAPRLSGSVIVKTGERMNRILEVNEKYGYALLEPGVTYFDLYEYLQSHDSGLMLDCPDLGWGSVVGNTLDRGVGYTPYGDHFMWQTGLEVVLPQGEVMRTGMGALPGSDAWQLFPYGFGPFPDGMFTQSNLGIVTKMGIALMQRPPASQSFLITFDKEEDLEQIVDIMLPLRINMAPLQNVPVLRNIFMDAAAVSKRTEWFDGDGPMPAEAIERMKKDLDLGFWNFYGTLYGPPPLIEMYYGMIKEAFGKIPGARFFTHEERDDRGGHVLQDRHKINNGIPSLDELQLLDWVPNGGHIGFSPVSAPDGREAMKQFEMVRNRANEYNKDYAAQFIIGLREMHHVCLFIYDTAIPEAREEILQMTKVLVREAAEAGYGEYRTHNALMDDVMATFNWGDGALLKFHEKIKDALDPNGIIAPGKSGIWSQRFRGQNL
notes: N-terminal His6 tag and C-terminal Strep-tag II, tags kept; gene from vector pEUGOA cloned into pET-28a(+) (pET-28-eugo-STII); E. coli BL21 (DE3) gold; Ni Sepharose purified; dimer, theoretical 124 kDa
In general, Km refers to the substrate concentration at which the rate is half of its maximum. By kcat is commonly meant the number of substrate molecules converted per active site and unit of time at saturation. Take B1: the Km worked out at 80 ± 20 µM and the kcat was 5 ± 1 s⁻¹.
